Data on 14 proteins can be found in the PETadex activity labels.

The labels stand for the following.
B1: unnamed (protein)
chain: MRPSSSSLHTAVPLRPRSRAMTALIALATTLGLALALLTAAAPPAAAADLLSQGRPATSSSTENTSTPASAAVDGNTGTRWSSTFSDPQWLSVDLGATATISQVVLRWETAYARAFQIQTSTNGTAWTTVHSSTSGTGGVQTLDVNGNGRYVRMLGTQRGTTYGYSLFEFQVYGSGGGTPPGNGIPDPTATSLETANGPLTTANYTVPNPSGYGSGTVTYPTSSGSYPSVVLMPGYQGTQQNLQWLAPRLASWGFVVVNVGTNTLTDDPESRGRQISAAGTQLLALGNAAGNPLSGKVNGTLGAVGHSMGGGGVMAALRDDSRFRAGVPTAPYHPNANFSSVTEPTFFLTCQSDSVAHGNTYAVPWYNSMSQAEKLYIEVPGDHLCPMTGSGNKAKQGKWIVSFLSLWLRADTRFGPFLCGPVRDPDKNNTSLVTRWMDTCAF
B2: unnamed (protein)
chain: MIHHFSVRALLAAGALLASAAVSAQTNPYERGPAPTTSSLEASRGPFSYQSFTVSRPSGYGAGTVYYPTNAGGPVGAIAIVPGFTARQSSINWWGPRLASHGFVVITIDTNSTLDQPDSRSRQQMAALNQVATLSRTSSSPIYNKVDTSRLGVMGWSMGGGGSLISARDNPSLKAAAPQAPWSSSKNFSSVTVPTLIIACENDSIAPVNQHADPFYDSMSRNPREFLEINGGSHSCANSGNSNQPLLGKKGVAWMKRFIDNDTRYTSFACSNPNSTRVSDFRVAACN
B3: unnamed (protein)
chain: MATMPSGTTALLSVTFFCTTPPSALSLKRHRYPSFRFRSPISVFLSRTHDYMQCRAPWGCMYSLGTPRGSVASRRTINEFLVGGVTQMNTKVQGSSASSAPKVGYPAKSLLAAGILLASFAANADVLFQEDFNAGLGQFTSGGDVTVTSSGARMQGCYGCTDGSITSGAISTVGFNTISLTFTRSTTGLDSGEAGIAEFSTNGSTWTTLESVRTASGARTVALPSTAAGQSALRIRFRINASLSSEYYTVDGVRVEGTPDGTPCTDCPPTGETAIGPDPTTATLEATAGSFTVATINVPSSVTGYGGGVIYYPTAAGTYGVVAMCPGYTASASSLAWWGTRLASWGLIVHIIDTNSTGDFPASRATQLIAALDYVKALNTSSTSPLRGKVANREAVSGHSMGGGGTLIAANNNASRTTLRAAFAMTPWSSSPDSFPSIRAATFVLGCESDNVASVSSHAYPFYVSIPSTVKKAYGEINNADHYCPTQSNPYKAQLGKYGVAWMKRHLEGDTRFDPWLCGAPHQQVVSGTFWSRYLSTCPY
B4: unnamed (protein)
chain: MKSFVKMCVGCVLALVMLAGISSADYRRGPNPSDSMLEARTGPFDFERSTVSRLSAGGYGGGTLFYPTNTNEGPFAGIVVCPGYMESDGQVDWWGPRLASNGFVVFVMQPQNTYMNQPSQRGNQMLDALDDLVSWNNSRNHAIYGLLDPNRLGLMGHSMGGGGTLIAAEDEANNPAVKAAIPLAPYALEKDFSRITCPTMIVACGADMIAPVAQHAMPFYRSLSDSIDKMFIEFAGDSHFCVIDGNMHMPTLGKLGIAWMKVFMDEDARYLTFLNDTNYGATMEVSRFQSNRPYSVPGGGTSGDCQQWTSSNDQHVSAGRAYTQQETVGCDTVTTYYAVGSNMSIGTSGYSSTTLHSSDGGNSYYTGSCP
B5: unnamed (protein)
chain: MKTKRHRTATTTVPLPKRSRLARLALAAALLLLSFAAQAQVVIFQENFNSGLGQFTASGTVSTSSGGARMQGCYGCTDGAITSSPISTVGFTNLSLSFDRTTTGLDSGEAGIAEYSTNGSTWTVIESTQSTSSGRVTIALPAAAAGQAALRLRFRVNASLSSETYTVDNIQLEGTPGGGPGGNPYQRGPDPTAALLEASTGPFTYATTTVSSTAASGYGGGTIYYPTNTAGPFAAIAVCPGYTATQSSISWWGPRLASHGFVVITIDTNSTSDQPSSRATQLMAALNQLVTFSNTSGHPIYGKVDPNRLGVMGHSMGGGGTLIAARDNPTLKAAIPLAPWNSSTNFSGVTVPTLIVACESDTIAPVSSHALPFYNSIPSSTKKAYLEINNGDHFCVTTGNSYKAILGKYGVAWMKRFLDNDTRYSPFLCGAPHQADLSGSAISEYRDNCPY
B6: unnamed (protein)
chain: MPMSLASASTLSGRAYSRSMRSRTRRRRARSRRRVPPVSARAETSKGSIGMPSSYGGARRGFSLGHPRGVRRGCVQATRRVRFLDWPRPAASRGAGDPSRGDTMTGTISSRIAMRAVACCIGLFAFTAGSASAQIGPDPTSASLNATAGSFAVSTSRVTLARGFGGGTIYYPTAAGSYGVVAISPGFTATESSIAWLGRRLATHGLVVITMNTNTTLDQPASRATQLMAALNHVVNSASSTVRSRVDSTRLAVAGHSMGGGGALIAAEDNPTLKAALPLTPWNLSTSFTQVRVPTLIVGSDGDTVAPVAAHARPFYASLPATTFKAYAELNAASHFTPNSTNTPIGRYGVTWMKRFVDADTRYSPFLCGAPHTAYATALVFDRYSQNCPY
B7: unnamed (protein)
chain: MKTSVTNFAKVTLTVATLLASAIASAQYTKGPDPTVAGLERDGSFTVRTTTVSSLAAVGFGKGTIYYPSAAGSYGVIAVSPGFTAYQSSISWIGSRLASHGFVVITIDTNTTSDQPDSRGSQLKAALDKVVSLSKSSSNVLYNKVDASRLAVAGHSMGGGGTLSAARDNPSYKAAVPLAPWHTTKSWPTLTVPTLIIGGEGDTVAGVSSHSIPFYTSISNSTKKAYMELNGEDHFFPQDATQYPLVGKYMISWFKRFVDNDTRYSAFICGAPHQTQIAVASKISDYRSNC
B8: unnamed (protein)
chain: MKTNRRRRLALAAAALLLSVAAQAQNGSAPPGPDPDPDPNPPESDNPYQRGPDPTAASLEASSGPFAVSTTTVSSASGFGGGTIYYPTNTEGPFAAIAVVPGFVGTESSIDWWGPRLASHGFVVITIDTNSVFDQPDSRATQLMAALDYVISQSNTSSSPISGMVDSNRLGVMGHSMGGGGSLIAARDNPTLKAAIPLAPWNSSTNFSAITVPTLIIACENDTVAPVSSHASPFYNSIPSSTDKAFLEINGGDHFCANSGNSNKDILGKYGVAWMKRFLDNDTRYDPFLCGPNHEADGSAISEYRDTCPY
B9: unnamed (protein)
chain: MKNITIRSTVRAAVAATLAATAVSGFAQTTAPTSASLNATAGPLAVSTSTVTAPRGFGGGTIYYPTTQARYGVIAISPGFTATETSLAWLGRRIATHGFVVITLNTLTTLDQPASRATQLMAALNHVVNSSPAAVKARIDTARLAVAGHSMGGGGALIAARDNPTLKASYSLTPWNTNSSFSTVRVPTMIVGADGDTIAPVGTHARPFYAALPGTTSKAYGELNNGTHFSPNSTNTPIGRYGVAWMKRFLDADTRYSTFLCGAEHTSYATALVFDRYNQNCPY
B10: unnamed (protein)
chain: MRKILLSVFTILSLNSYSQCDDVISSSITNPGIYEVATLSESDGVRNGADYYGSTIYYPINTNNFLGSIVIVPGFVSYEFSIQEWGPFLASHGIVCMTIGTNSIFEQPNQRATALLDAMVSLKEENSRNASPLNSKLDIDNIALGGWSMGGGGAQIAAKMDSSIKVVIALCPWLETGLISEEYLNHQAPILFISAEYDGIANASLHATPQYELSSETTPKLIYEVANGGHTVANYPTSGNGEVGLIALSWLKKYLLNEDCYCPILLESPETASMYMTNINCENSNLNAQEIECTEGWSIISTYVNPINTNFSNFIAPVVNNLIIAKDYIGNAYLPEWDYNGIGNIEQGQGYLIKMLNTMSLAVVGEQIIASENSISLNEGWNLFANFNTESTNSDLSFAALVETENVIIIKDYIGNAMLPEWEFNGLGDLQPGRGYQIKVTANCELQY
B11: unnamed (protein)
chain: MKTTTFKKSALSALTLLFSLSAFSGGGGGDDGNNDQLPAPDTCNSNCGYEIGPNPTLSFLEASQGPLSVSTTNVSSSVDGFGGGTIYYPTNTSQEMAAIAVAPGFTNTQSAIQWWGPILASHGFVVITIDTNGRFDQPESRSRQLDAALSYLISEGNRSSSPISGLVDENRLATMGFSMGGGGTLRSASRNRLSAAVPLAPWNTGGNNFDQIGVPTLIFACENDSTARVNSHASPFYNRIPSSTDKAYLEINNGPHNCANGNNSSNNALLSTYGVSWMKRFLDKDSRYNQFLCGPNHEANSRISEYRDTCNY
B12: unnamed (protein)
chain: MRDPPEYGTQTLHYPTDADPPFAAIAIVPGFVSPESSIIEWGPFLASHGIVVLTIGTNSGSDSPEIRSTALLAALETIKSEHARAGSPIEGKIDTTRLAVGGWSMGGGGTLLTITAHPELKAGLAICPWYTNAFAFAGNTVPVIMFAGTADVLAGGMSQGFYDAIPASTPKMLFEIAGADHFYANNPLMPNVQVGLYGLSWLKVFLEGDDRYRQFLLGPPQNASDFRTTVQ
B13: unnamed (protein)
chain: MSTGTRVPHAGRAATAPVEGPRQRGRKMQHSLSTSRSRKRVTGILASLAVAVGVGIAAGPVAHGADNPHERGPDPSESSIEAVRGSYSISDRNVSSWVSGFGGGTIYYPTTTSDGDFGAVVISPGYTGTESTISWLGPRLASQGFVVLTMATNSIYDQPDSRARQLQAALDYLTDDSPVADRIDPDRLALMGHSMGGGGTLRAVDDNPDIKAAIPMTPWHLKKDWSSVTTPTLIFGAEDDSVARHETHAEPFYESFDRDLPKAYLELDGASHFAPNYSNTTIAKYSISWLKRFVDDDERYTQFLCPGPSTGWFSDVEKYESSCPL
B14: unnamed (protein)
chain: MKKSIFSKLVVSAGALLLSSTLYASGGGSGGGGSVPPVGNNPCGPDPSSSALSRTGSSGPFSVATKNVSSFSASGFGGGTIHYPTNSNCGRMGGIAVVPGYVSYESSIEWWGPRLASWGFVVITINTNSIYDQPNSRADQLSAALDHIIDDSTVGSLVDPDRLGAIGWSMGGGGSLKLATDRARVRAIIPQAPWYSGSYGSMDTPAFMIACENDAIAPTSSHVDDFYRDASGPKMKIEVNNGSHYCANSGYNESLLGKPGIAWMKRYIDGDTRYNQFLCGNESYGSSYEVSDYDYASCP

Substrate in the data set: BHET
To be noted: 120 h.
On to B1, for which the plate clearing entry is reported as “not clears the plate”.

In the case of B2, the plate clearing result is reported as “not clears the plate”. For B3 the value was “not clears the plate”; for B4, “not clears the plate”. In the case of B5, the plate clearing entry is “clears the plate (z > 3 vs empty vector)”. For B6 the value was “not clears the plate”; for B7, “not clears the plate”.

As to B8, the plate clearing entry is given as “not clears the plate”.

As to B9, the plate clearing result is reported as “not clears the plate”. For B10, the plate clearing result is “not clears the plate”. For B11 the value was “not clears the plate”; for B12, “not clears the plate”. Regarding B13, the plate clearing entry is listed as “not clears the plate”. For B14 the value was “not clears the plate”.
